The Km is the concentration of substrate that gives half-maximal velocity. By kcat is commonly meant the number of substrate molecules converted per active site and unit of time at saturation.

The subject of one data set is T1, MddM1.
T1 construct: full length (210 aa, ~23 kDa native), GST-tagged in pGEX-4T-1, expressed in E. coli BL21(DE3), glutathione Sepharose purified; no tag removal told
The experiment in a line: GC detection of DMS, Michaelis-Menten fit. As to conditions: pH 9, 40 °C. Type of data set: biochemical, Mycolicibacterium poriferae.

Substrate in data set [1]: CS
Put plainly: GC detection of DMS, Michaelis-Menten fit. The class given is biochemical, Thermobispora bispora. Conditions: pH 8, 30 °C, SAM fixed at 1 mM, GST-tagged enzyme 2 µg.

Substrate in the data set “purified protein”: C[S+](CC[C@H](N)C(=O)O)C[C@H]1O[C@@H](n2cnc3c(N)ncnc32)[C@H](O)[C@@H]1O
Put plainly: purified protein. Conditions: pH 8, 30 °C, MeSH as co-substrate fixed at 1 mM, methyl donor.

For `CS` [methanethiol], the Km in the data set with MddM1 (SAM fixed at 1 mM, GST-tagged enzyme 1 µg) was determined as 760 µM. As for `C[S+](CC[C@H](N)C(=O)O)C[C@H]1O[C@@H](n2cnc3c(N)ncnc32)[C@H](O)[C@@H]1O` (some centres unmarked) [S-adenosine-methionine], the Km in the data set on MddM1 (MeSH as co-substrate fixed at 1 mM, methyl donor) stood at 110 ± 50 µM.

B1: TbMddM2 (Thermobispora bispora DSM 43833) (protein)
chain: MSAADVLPVNHHADHPGFSGVIGTVIGLIFLLAGRPTARLAADLAAVGPGDRVADIGCGPGTAVREAARRGAQATGVDPAPVMLRWARMAGRGEAMEWREGTAERVPLPDGWATVWWSLATVHHWKDVEAGLREAYRVLAPGGRLLAMERQIAPGATGQASHGWTRRQADAFADHCRAAGFTDVTVTAHRAGRRDVWVVTATRP
Take B1: the Km in data set [1] turned out to be 220 µM. In “purified protein”, the Km was determined as 20 ± 10 µM and the kcat was 0.05 ± 0.01 s⁻¹.
